The source of these data is PMC9595563.

In this assay the target is the RBD of spike (depending on domain and variant). Description: ELISA.

LRRC15-Fc, sequence (Q8TF66 22-538): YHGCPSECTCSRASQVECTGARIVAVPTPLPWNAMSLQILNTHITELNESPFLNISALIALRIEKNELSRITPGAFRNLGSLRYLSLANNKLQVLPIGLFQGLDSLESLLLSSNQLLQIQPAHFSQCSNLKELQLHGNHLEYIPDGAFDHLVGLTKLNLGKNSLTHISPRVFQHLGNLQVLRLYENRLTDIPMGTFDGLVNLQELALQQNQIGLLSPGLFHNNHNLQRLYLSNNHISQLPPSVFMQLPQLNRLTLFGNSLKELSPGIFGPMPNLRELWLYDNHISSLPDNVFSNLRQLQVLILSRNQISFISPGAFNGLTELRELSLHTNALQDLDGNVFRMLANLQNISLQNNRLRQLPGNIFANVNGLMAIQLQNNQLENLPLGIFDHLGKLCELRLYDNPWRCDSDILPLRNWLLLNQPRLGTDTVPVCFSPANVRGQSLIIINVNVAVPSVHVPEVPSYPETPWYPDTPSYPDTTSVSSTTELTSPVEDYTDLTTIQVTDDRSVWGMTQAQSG

For orientation: Kd means a measure of binding affinity in units of concentration. The low end stands for tighter binding, the high end for weaker binding. Turning to “LRRC15-Fc (from UniProt Q8TF66) (Fc fusion)”, the Kd fell in the range of 43 to 148 nM.
